Measurements taken from patent publication US7871610B2, “Antibodies to Tie1 ectodomain” (Dyax Corp., priority 2003, dated 2011).

Assays:
[1] = biological target: T1, recombinant human Tie1-Fc (Homo sapiens, UniProt P35590); assay: BIAcore, parental and germlined E3b Fabs on human Tie-1/Fc; type: binding; settings: parental and germlined E3b Fabs, human Tie-1/Fc
T1 construct: selected against the Tie1 extracellular domain fused to human Fc or to a histidine purification tag
T1 sequence (P35590 22-759 limits assumed): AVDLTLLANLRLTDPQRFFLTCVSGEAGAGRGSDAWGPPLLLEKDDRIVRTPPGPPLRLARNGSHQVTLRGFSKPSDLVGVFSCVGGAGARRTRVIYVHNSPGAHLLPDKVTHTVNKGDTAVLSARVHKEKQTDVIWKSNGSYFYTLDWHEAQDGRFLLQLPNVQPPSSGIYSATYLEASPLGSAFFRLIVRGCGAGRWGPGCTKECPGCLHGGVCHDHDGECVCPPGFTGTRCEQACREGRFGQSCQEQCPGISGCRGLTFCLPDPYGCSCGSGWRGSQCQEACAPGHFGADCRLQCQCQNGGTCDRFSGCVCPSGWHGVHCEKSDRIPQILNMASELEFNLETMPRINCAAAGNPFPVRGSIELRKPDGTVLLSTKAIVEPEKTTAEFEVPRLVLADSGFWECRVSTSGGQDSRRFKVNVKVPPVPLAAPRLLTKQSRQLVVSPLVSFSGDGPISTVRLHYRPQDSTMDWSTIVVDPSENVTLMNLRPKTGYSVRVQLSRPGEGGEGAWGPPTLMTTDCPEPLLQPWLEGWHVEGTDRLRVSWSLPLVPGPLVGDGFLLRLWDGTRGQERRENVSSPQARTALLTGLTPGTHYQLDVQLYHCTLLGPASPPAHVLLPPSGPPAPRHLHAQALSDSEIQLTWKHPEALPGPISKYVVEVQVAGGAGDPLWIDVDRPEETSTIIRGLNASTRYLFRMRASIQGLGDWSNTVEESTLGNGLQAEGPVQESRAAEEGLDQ
Protocol: Recombinant human Tie-1/Fc was coated on a CM5 chip. The surface of the chip was first activated with a 7-minute pulse of 0.05 M NHS/0.2 M EDC, then Tie-1/Fc (2 μg/ml in 10 mM sodium acetate, pH 4.0) was run over the chip surface until 750 RUs were coated on the surface. All flow cells were subsequently deactivated with a 7-minute pulse of 1 M ethanolamine hydrochloride, pH 8.5. All further experiments were performed in HBS buffer.
The parental and the germlined E3b Fabs were prepared. A series of dilution (50, 25, 12.5, 6.25 and 3.125 nM) was prepared in HBS buffer. Samples were injected at 30 μl/min for 5.3 minutes using the KINJECT™ program. This was followed by a 10-minute dissociation phase, and the remaining Fab was stripped from the surface with a single 18-sec injection of 50 mM NaOH/1 M NaCl.
Sensorgrams were analyzed using the simultaneous ka/kd fitting program from the BIAEVALUATION™ software 3.1 assuming a 1:1 model.

[2] = biological target: T1, recombinant human Tie1-Fc; assay: BIAcore, E3 Fabs on recombinant human Tie1-Fc; type: binding; settings: Fab
Protocol: Recombinant purified human Tie1-Fc antigen (Stock 2.45 mg/ml) was biotinylated using the EZ-link Sulfo-NHS-SS-Biotin (Pierce, Cat. 21331). The reaction was performed for 2 hours on ice in 50 mM sodium carbonate buffer, pH 9.6, in the presence of a 5-fold molar excess of biotinylating agent and was stopped by the addition of Tris-HCl, pH 7.5 (50 mM final concentration) followed by a 1-hour incubation on ice. Samples were then dialyzed against PBS. The antigen was then diluted 1/100 fold in HBS and was then captured onto a streptavidin chip. This was coated to a density of 830RU (resonance units). All analysis was performed in HBS buffer. The parental Fab E3 and germlined E3 Fab were prepared as described above. A stock solution of 0.587 mg/ml (11740 nM) was diluted 1/587 in HBS+BSA to obtain a stock of 20 nM and the germlined Fab E3 0.025 mg/ml (500 nM) was diluted 1/25 in HBS+BSA to obtain a stock of 20 nM. Serial dilutions were made of each Fab preparation to obtain 10 nM, 5 nM, 2.5 nM, and 1.25 nM solutions. For the association phase samples were injected at 30 μl/min for 4 minutes using kinject program. […] All samples were run and analyzed in duplicate.
Sensorgrams were analyzed using the simultaneous ka/kd fitting program with 1:1 model in the BIAEVALUATION™ software 3.1.

[3] = test system: bFGF-induced angiogenesis; assay: […] plug assay, bFGF-induced angiogenesis in NMRI nu/nu mice; type: in vivo, mouse
Protocol: The germlined variant of the E3 IgG antibody was evaluated in an in vivo assay for angiogenesis induced by bFGF in […]™ plugs. Growth factor reduced […]™ (BD Biosciences, catalog # 354230) was supplemented with 80 ng/ml of bFGF (R&D Systems, catalog #234-FSE). The A2-SV or an IgG4 E3 antibody (10 μg/ml) or PBS was injected subcutaneously into the abdominal area of NMRI nu/nu mice (150 μl of Matrigel/plug).
In the first assay, two mice were injected with […]™ supplemented with bFGF and soluble VEGFR-1 (10 μg/ml) as a positive control for an angiogenic inhibitor. At day 7 post-implantation mice were anesthetized and perfused through heart with 4% paraformaldehyde (PFA) in phosphate buffered saline (PBS). […]™ plugs and a piece of liver were removed and embedded in paraffin. Sections were cut and stained with hematoxylin and eosin (H&E).
In a second assay, mice were treated as described above, and then anesthetized eight days post-implantation and injected with fluorescein-conjugated tomato (lycopersicon esculentum) lectin (100 μg in 200 μl of PBS; Vector, catalog #FL-1171) into the tail vein. After five min circulation the animals were perfused through the heart with 10 ml of PBS followed by 10 ml of 4% PFA in PBS. […]™ plugs and pieces of kidney and liver were removed and frozen in OCT (Tissue-Tek). Nuclei were visualized on sections by using […]® mounting medium containing DAPI (Vector) and analyzed under fluorescence microscopy.

B1: E3: human anti-Tie1 antibody from Fab phage library; HC SEQ ID NO:114, LC SEQ ID NO:116 (antibody, V domains shown)
VH: EVQLLESGGGLVQPGGSLRLSCAASGFTFSMYGMVWVRQAPGKGLEWVSVISPSGGNTGYADSVKGRFTISRDNSKNTLYLQVNSLRAEDTAVYYCARAPRGYSYGYYYWGQGTLVTVSSASTKGPSVFPLAPSSKSTSGG
VL: DIQMTQSPLSLSASVGDRVTITCRASQGIGHYLAWYQQKPGKVPKLLIYTASTLQSGVPSRFSGSGSGTDFTLTINSLQPEDVATYYCQQFNSYPHTFGQGTRLDIK
modifications: Synthetically generated peptide
- effect of germlining on the affinity against Tie-1/Fc [1]: little or no effect on the affinity
- effect of germlining on binding activity [2]: minimal effect on the binding activity
- bFGF-induced angiogenesis in vivo ([3]; conclusion from the two experiments): can inhibit bFGF-induced angiogenesis in vivo
- vessel-like structures in MATRIGEL plugs (H&E staining) ([3]; first assay, day 7, bFGF 80 ng/ml, antibody 10 μg/ml in plug, E3 = germlined variant, IgG4): neither modification of the matrix nor organization of the cells
- fluorescein-lectin staining of MATRIGEL plugs ([3]; second assay, eight days post-implantation, antibody 10 μg/ml in plug): no staining could be detected
